{
  "source": "patent US10017734B2",
  "about": "“Method for producing dopaminergic neurons” (TAKEDA PHARMACEUTICAL COMPANY LIMITED, priority 2013, dated 2018)",
  "molecules": {"B1": {"name": "FGF8: growth factor, fibroblast growth factor-8 (protein, UniProt P55075 23-233, looked up)", "Fibroblast growth factor 8": "QEGPGRGPALGRELASLFRAGREPQGVSQQHVREQSLVTDQLSRRLIRTYQLYSRTSGKHVQVLANKRINAMAEDGDPFAKLIVETDTFGSRVRVRGAETGLYICMNKKGKLIAKSNGKGKDCVFTEIVLENNYTALQNAKYEGWYMAFTRKGRPRKGSKTRQHQREVHFMKRLPRGHHTTEQSLRFEFLNYPPFTRSLRGSQRTWAPEPR"}, "B2": {"name": "activin A: peptidic cell proliferation and differentiation factor belonging to the TGFβ family; activator of activin receptor-like kinase-4,7 (protein, UniProt P08476 311-426, looked up)", "Inhibin beta A chain": "GLECDGKVNICCKKQFFVSFKDIGWNDWIIAPSGYHANYCEGECPSHIAGTSGSSLSFHSTVINHYRMRGHSPFANLKSCCVPTKLRPMSMLYYDDGQNIIKKDIQNMIVEECGCS", "modifications": "Inhibin beta A chain"}},
  "key": {"[1]": {"test_system": "floor plate cells induced from human iPS cell (253G1 strain, 201B7 strain)", "test": "Study of various MEK inhibitors (including FGFR inhibitor): NURR1 expression by quantitative RT-PCR on day 45", "assay_type": "cell-based", "details": "for expression of NURR1: 253G1 strain, added to ascorbic acid and dbcAMP, 3 μM PD0325901, 3 μM PD184352, 10 μM SU5402", "from_the_text": "Whether midbrain dopaminergic neuron can be induced in a medium containing any of PD184352 (Axon MedChem), SU5402 (FGF receptor (FGFR) inhibitor, Wako Pure Chemical Industries, Ltd.) and PD173074 (FGFR inhibitor, Axon MedChem) instead of PD0325901 in the aforementioned (A) Neuro/B27 was studied.\nFloor plate cells were induced by a method similar to the methods described in Reference Examples 1 to 3, the medium was exchanged with Neuro/B27 added with (1) 3 factors of ascorbic acid, dbcAMP and PD0325901, (2) 2 factors of ascorbic acid and dbcAMP, (3) ascorbic acid, dbcAMP and 3 μM PD184352, (4) ascorbic acid, dbcAMP and 10 μM SU5402, or (5) ascorbic acid, dbcAMP and 0.1 μM PD173074 on day 13 of culture, and the cells were cultured at 37° C. under 5% CO2 for not less than 30 days. The medium was exchanged every 3-4 days during the above-mentioned culture periods. On day 45 of culture, the cells were recovered, and expression variation of NURR1 was examined. In 253G1 strain, the expression of NURR1 was elevated by the addition of PD0325901, PD184352 or SU5402 and, in 201B7 strain, the expression of NURR1 was elevated by the addition of all 4 kinds."}, "[2]": {"test_system": "human iPS cell (253G1 strain, 201B7 strain)", "test": "Floor plate cell marker expression by quantitative RT-PCR on day 13 of culture", "assay_type": "cell-based", "details": "FGF8 added in addition to the 5 kinds (All+FGF8)", "experimental": "The medium after preculture as described in the above-mentioned Reference Example 2 was exchanged with a differentiation induction medium containing factors inducing differentiation into floor plate cell (LDN193189 (0.5 μM, Axon MedChem B.V.), SB431542 (10 μM, Wako Pure Chemical Industries, Ltd.), purmorphamine (0.5 μM, Merck), SHH (200 ng/ml, R&D systems) and CHIR99021 (1 μM, Axon MedChem)) (day 0 of culture), and the cells were cultured at 37° C. under 5% CO2 for 5 days. Then, the medium was exchanged with a differentiation induction medium containing 0.5 μM LDN193189 and 1 μM CHIR99021, and the cells were cultured at 37° C. under 5% CO2 for 5-8 days (total 10-13 days). […]\nTo examine expression variation of floor plate cell marker due to the presence or absence of factors inducing differentiation into floor plate cell (LDN193189, SB431542, purmorphamine, SHH and CHIR99021), the cells on day 13 of culture were recovered, and total RNA fraction was purified using RNeasy (Qiagen). Using PrimeScript RT reagent kit (Takara Bio Inc.), cDNA was synthesized, quantitative RT-PCR was performed, and the gene expression levels of floor plate cell markers FOXA2 and LMX1A were measured. […]"}, "[3]": {"test_system": "floor plate cells induced from human iPS cell (253G1 strain, 201B7 strain)", "test": "TH and NURR1 expression by quantitative RT-PCR on day 26 of culture", "assay_type": "cell-based", "experimental": "Floor plate cells were induced by a method similar to the methods described in Reference Examples 1 to 3, the medium was exchanged with Neuro/B27 added with one or more kinds of 0.1 mM ascorbic acid, 0.5 mM dbcAMP, 3 μM PD0325901, and 20 ng/ml activin A (R&D), or Neuro/B27 without addition of ascorbic acid, dbcAMP, PD0325901, and activin A as a control on day 12 of culture, and the cells were cultured for 14 days more (total 26 days). The cells after culture were recovered, and the expression variation of TH and NURR1 was examined by a method similar to Reference Example 3. […] On the other hand, when ascorbic acid, dbcAMP and PD0325901 were added, the expression level was lower at the time point of day 26 of culture than the addition of ascorbic acid, dbcAMP and activin A."}, "[4]": {"test_system": "TH/hNuc double positive cells in the mouse striatum", "test": "Transplantation of day 26 cells to mouse striatum, tissue staining for TH and hNuc", "assay_type": "in vivo, NOD SCID mice", "experimental": "Midbrain floor plate cells were induced by a method similar to the methods described in Reference Examples 1 to 3, the medium was exchanged with Neuro/B27 added with 0.1 mM ascorbic acid, 0.5 mM dbcAMP, 3 μM PD0325901 or 0.1 mM ascorbic acid, 0.5 mM dbcAMP, 3 μM PD0325901, 20 ng/ml activin A on day 12 of culture, and the cells were cultured for 14 days more (total 26 days). After culture, the cells were washed with PBS, and dispersed by treating with TrypLE Express (Life Technologies) at 37° C. for 10 min. The cell concentration was adjusted to 1×10^5 cells/μl with Neuro/B27 medium, and the cells were maintained on ice until transplantation.\nA transplantation experiment to mouse striatum was performed as follows. Twelve 8-week-old male NOD SCID mice (Charles River Laboratories Japan, Inc.) were divided into a control group and an activin A group (6 mice per each group). The cells cultured with the addition of ascorbic acid, dbcAMP, PD0325901 were used for transplantation to the control group, and the cells cultured with the addition of ascorbic acid, dbcAMP, PD0325901, activin A were used for transplantation to the activin A group. The hair of the head surgical field of the mice was shaved under pentobarbital (50 mg/kg, ip) anesthesia, and isodine was applied. Several minutes later, the skin was disinfected by wiping off isodine with Menban immersed in 0.1% Osvan aqueous solution, and the mice were fixed on a brain stereotaxis apparatus (David Kopf, David Kopf Instruments in USA). The scalp was incised from the midline, periosteum was detached, and Bregma and Lambda of the mice were exposed. “The mouse brain in stereotaxic coordinates” was referred to for the coordinate of the striatum (AP: +0.5 mm; ML: +1.8 mm), a hole was made in the cranial bone with an electric drill (ϕ0.5 mm), Hamilton syringe was inserted from the surface of the cranial bone to the depth DV: −3.5 mm, and the cells (1×10^5 cells/μl, 2 μl) were transplanted over 10 min After transplantation, the incision on the head was sutured and the mice were allowed to recover. […]"}},
  "data": [
    {"molecule": "Cc1c[nH]c(C=C2C(=O)Nc3ccccc32)c1CCC(=O)O", "note": "[SU5402, 3-[4-methyl-2-(2-oxo-1,2-dihydro-indol-3-ylidenemethyl)-1H-pyrrol-3-yl]-propanoic acid]", "values": [
      {"measurement": "expression of NURR1", "setting": "[1]", "value": "elevated"}
    ]},
    {"molecule": "CCCS(=O)(=O)Nc1ccc(F)c(C(=O)c2c[nH]c3ncc(-c4ccc(Cl)cc4)cc23)c1F", "note": "[PLX4032]", "values": [
      {"measurement": "effect on expression of NURR1", "setting": "[1]; strain and concentration not given", "value": "no effect"}
    ]},
    {"molecule": "O=C(NOCC1CC1)c1ccc(F)c(F)c1Nc1ccc(I)cc1Cl", "note": "[PD184352, 2-(2-chloro-4-iodophenylamino)-N-cyclopropylmethoxy-3,4-difluorobenzamide]", "values": [
      {"measurement": "expression of NURR1", "setting": "[1]", "value": "elevated"}
    ]},
    {"molecule": "B1", "values": [
      {"measurement": "expression of FOXA2 and LMX1A", "setting": "[2]", "value": "scarcely changed"}
    ]},
    {"molecule": "B2", "values": [
      {"measurement": "expression of TH and NURR1", "setting": "[3]; 20 ng/ml activin A alone", "value": "scarcely elevated"},
      {"measurement": "expression of TH and NURR1", "setting": "[3]; activin A added together with ascorbic acid and dbcAMP", "value": "increased remarkably"},
      {"measurement": "TH/hNuc double positive cells", "setting": "[4]; 4 weeks after transplantation to mouse striatum", "value": "not less than 40%"},
      {"measurement": "TH/hNuc double positive cells", "setting": "[4]; 8 weeks after transplantation to mouse striatum", "value": "not less than 50%"},
      {"measurement": "TH/hNuc double positive cells, change as compared to 8 weeks", "setting": "[4]; 12 weeks after transplantation to mouse striatum", "value": "did not show a remarkable increase"}
    ]}
  ]
}
